{"source": "the domain aggregation screens of Martell et al. (2025)", "assay": "soluble fraction after stress (log2 fold change); higher = more stays soluble; pooled small domains, quantitative proteomics", "settings": "stress: pH 4", "procedure,_shortened": "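Aggregation propensity here comes from the fold change in the soluble amount of each small protein domain after acid stress, measured in pooled custom libraries by high-throughput quantitative proteomics. The acid stress was pH 4. On the log2 scale, higher values mean more of the domain stayed soluble.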"}
{"sequence": "HMRMTRQRKVILEELGKVYTHPTADEIYTMVKEKLPNISLGTVYRNLDLLAENNQVLKLETAGNIRRYD", "values": [{"measurement": "soluble fraction (log2)", "result": -0.375}]}
{"sequence": "HMRMYDVNEYSDEELHRILDLSSPTDSELEARILQMIQKYKYTNGGDNEKMAVFFENIYHHFFD", "values": [{"measurement": "soluble fraction (log2)", "result": -1.54}]}
{"sequence": "HMRNAAGGIYGWMTLHQVAETVKLTEEEVIAITNLPAGIPRDVSLKNIEGVNDEELRALLEAYLEKQ", "values": [{"measurement": "soluble fraction (log2)", "result": -0.968}]}
{"sequence": "HMRNISLSLRWHSGEWTADRLKSEVLALPGAMDMTVFEPQSQAYLRVEQGFDTKLLPAGIDVH", "values": [{"measurement": "soluble fraction (log2)", "result": -0.958}]}
{"sequence": "HMRNNKLRRANKLKTEFENLPHIGKKRAHVLLKAFGSTENLKMTTAQALSEAAKISLKQAEEVLEAVRG", "values": [{"measurement": "soluble fraction (log2)", "result": -0.0912}]}
{"sequence": "HMRNQIRAVITPVPNQERYTVEMTIDDDAGNLLTLQMAAPDRQQAAEFAQRFQKHPEALYHAVLSVLL", "values": [{"measurement": "soluble fraction (log2)", "result": -0.191}]}
{"sequence": "HMRNSFTVENTGERLDVFLTGQMPEFSRSHIQKLIASGQAWVNGVNRKGNFKLKPHDVVELEVPEPE", "values": [{"measurement": "soluble fraction (log2)", "result": 0.169}]}
{"sequence": "HMRNSVQREWIYDYIQRQDAHLSADEIYEGLLKEGKNISLATVYRNLSILVDEYKIASVMTDSKKQVYDK", "values": [{"measurement": "soluble fraction (log2)", "result": -0.327}]}
{"sequence": "HMRNTPQRRHAILALLSEQGEVSVDALAKRFSTSEVTIRKDLAAMESHGLLLRRYGGAVPMPQELI", "values": [{"measurement": "soluble fraction (log2)", "result": 0.0719}]}
{"sequence": "HMRPEVALSSRELEILEALATGKSNKELAQRLFISEATVKTHLIHIYQKLGVDTRTAAVTVARERKL", "values": [{"measurement": "soluble fraction (log2)", "result": -0.431}]}
{"sequence": "HMRPEVTEHLKTADAILHGGDINRQSIVDELRQYAPLYIVRGNNDKDWAEAIPHDLTVTLGGVTFFMVHNR", "values": [{"measurement": "soluble fraction (log2)", "result": -0.42}]}
{"sequence": "HMRPFAMNLLEKHKADIEVWLKHPNMTNTQIKRLLEELGTSVSVSSIDRFISTSFPKLPKHT", "values": [{"measurement": "soluble fraction (log2)", "result": -0.207}]}
{"sequence": "HMRPIWVQLADDFRHRIVSGQWPPGSKIPSVRELAAETGVNPNTVQRALGALDGEGLTATERTAGRFVTT", "values": [{"measurement": "soluble fraction (log2)", "result": -0.0115}]}
{"sequence": "HMRPKVADIDYFDGKTFTIEDGSKHSITTSEAKKIYFYLVKNGYVDDESHVTDAYRSAATSGTLA", "values": [{"measurement": "soluble fraction (log2)", "result": -0.0612}]}
{"sequence": "HMRPQELSSLNTNQMRLYNSLPEAFITAEAKDIADKLRYSERSLFRFLNESNLFTKTEHGSYAKKA", "values": [{"measurement": "soluble fraction (log2)", "result": -0.585}]}
{"sequence": "HMRPQYVDLFTKLSAEEAGAITSKLKELKVEYQLADNGSTIKVPQKDAAEIRLELANEGLPA", "values": [{"measurement": "soluble fraction (log2)", "result": -0.283}]}
{"sequence": "HMRPRQDRSEETRDRILDAVVELIAERGLAGVSHRAVADRAGVSLSATSYYFGSKAELERAALEEHYRR", "values": [{"measurement": "soluble fraction (log2)", "result": -0.992}]}
{"sequence": "HMRPSGEAVNAAYRLLKGANPSGNEGDLIQRAQEVAAILPKLNRSSAAAFAKDAKANGLTQAETIALWKGS", "values": [{"measurement": "soluble fraction (log2)", "result": 0.163}]}
{"sequence": "HMRPTYRTRLEVLINNPAISGRDLDFAQSLLSYYERKGRLSAGRVKWVTTLEERYSPENLAASAAK", "values": [{"measurement": "soluble fraction (log2)", "result": -0.306}]}
{"sequence": "HMRQFEPVEGYNPYADKNELHGYEYWGAKFADSRSPEETAWIKQQIDDENEDRRFISEAGLA", "values": [{"measurement": "soluble fraction (log2)", "result": -0.446}]}
{"sequence": "HMRQQQISAAIKTSVNGTVDYYVRRLPERDPRGDFLEVWDDLQKVIQAAHGIQVSHDELYEYFRRLK", "values": [{"measurement": "soluble fraction (log2)", "result": -1.19}]}
{"sequence": "HMRQQSLHSLYRDHHSWLQNWLRRQLGNTWDAADLSQDTFIKVLASSQSVAEIREPRAYLLTVGKRL", "values": [{"measurement": "soluble fraction (log2)", "result": -0.0586}]}
{"sequence": "HMRQSDIAAAFRESILRSSKGFQYLHTRDFVTALRRRGIHLSEVEANSWIAREKTYFVDSALDHSENRLWI", "values": [{"measurement": "soluble fraction (log2)", "result": -0.634}]}
{"sequence": "HMRQSIHTALQLLTPREEEVLNLLVSGKSNKQVAEHFSLSSKTIERHRSSVMRKLDASSFAQLVRIAALR", "values": [{"measurement": "soluble fraction (log2)", "result": -0.404}]}
{"sequence": "HMRQYPSGVFKEEGVKAVYIHAGTPFLVIAAQYKIPLARLFEWNNLLPSTEARISQVIYLERPG", "values": [{"measurement": "soluble fraction (log2)", "result": 0.238}]}
{"sequence": "HMRRARVAGKGHFTGEDAMAVYRELEALFGETETLYLPGHRPFEAVLSKLALIGVPEKNTVPYTFAFVET", "values": [{"measurement": "soluble fraction (log2)", "result": -1.09}]}
{"sequence": "HMRREIRLTVTEEIVLMKFLLTQIPYKNRDNFKTLLNDRQIRVNGSVVTWYNHPLKPGQEVTIGWFKM", "values": [{"measurement": "soluble fraction (log2)", "result": -0.628}]}
{"sequence": "HMRRPRGVFNLVPGKRFGFITPDGGGEDVFAHLANVRAGHVAEDRNAVEYGIGRGPDGRDQAVDIVPMP", "values": [{"measurement": "soluble fraction (log2)", "result": 0.00891}]}
{"sequence": "HMRRQRNPEIFDQLVNKFHFTFTQTQQLKQLIKRWHMLFPGKSLKSAIQGYKSAKEILTYINDSLDVVE", "values": [{"measurement": "soluble fraction (log2)", "result": 0.0668}]}
{"sequence": "HMRRRTLRQGATGSDVHAVQRLLNVDGAGLRTDGIFGPATERAVIAYQRKHGLAVDGVVGRETWTALLG", "values": [{"measurement": "soluble fraction (log2)", "result": -0.0548}]}
